Results on 28 sequences are retold here after the Immune Epitope Database (IEDB).

The target in experiment [1] is HLA-A*01:01. Kind of experiment: IEDB peptide-MHC binding, purified MHC/direct/fluorescence; filed as Kd, often an IC50 or EC50 that approximates it; ≥ and ≤ were set here for values at or beyond the usual limits of such assays.
Experiment [2] concerns the target HLA-A*01:01. The experiment can be described thus: IEDB peptide-MHC binding, purified MHC/competitive/radioactivity; filed as Kd, often an IC50 or EC50 that approximates it; ≥ and ≤ were set here for values at or beyond the usual limits of such assays.
For a further experiment, the target named is HLA-A*23:01. The experiment is described as above.
A further experiment has as its target HLA-A*24:02. The description is as above.
For a further experiment, the target named is HLA-A*26:01. Described as above.
Another experiment has as its target HLA-A*29:02. The description is as above.
Another experiment addresses HLA-A*30:02. The description is as above.
The target of the next experiment is HLA-B*44:02. Described as above.
A further experiment addresses HLA-B*15:01. Kind of experiment: IEDB peptide-MHC binding, purified MHC/direct/fluorescence; filed as Kd, often an IC50 or EC50 that approximates it; ≥ and ≤ were set here for values at or beyond the usual limits of such assays.
The target of another experiment is HLA-A*02:01. Described as above.
Another experiment concerns the target HLA-A*69:01. The experiment is described as above.
The target in another experiment is HLA-A*30:01. The experiment can be described thus: IEDB peptide-MHC binding, purified MHC/competitive/radioactivity; filed as Kd, often an IC50 or EC50 that approximates it; ≥ and ≤ were set here for values at or beyond the usual limits of such assays. As to conditions: source organism: Dengue virus 1 Brazil/97-11/1997.
The target in another experiment is HLA-A*03:01. Described as above. As to conditions: source organism: Dengue virus 1 Brazil/97-11/1997.
Setting [3] is: source organism: SARS coronavirus Tor2.
The mark [4] stands for this setting: source organism: Lassa virus Josiah.
The mark [5] stands for this setting: source organism: Dengue virus 3 Martinique/1243/1999.
[6] abbreviates: source organism: Mammarenavirus lassaense.
Setting [7] is: source organism: Mammarenavirus guanaritoense.
Where [8] appears, read: source organism: Lymphocytic choriomeningitis virus (strain Armstrong).
Where [9] appears, read: source organism: Dengue virus 2 Jamaica/1409/1983.
Setting [10] is: source organism: Encephalitozoon cuniculi.
[11] abbreviates: source organism: Mammarenavirus juninense.
Where [12] appears, read: source organism: Triticum aestivum.
Where [13] appears, read: source organism: Lassa virus GA391.
Where [14] appears, read: source organism: Vibrio vulnificus.
Where [15] appears, read: source organism: Serratia proteamaculans.

In general, Kd refers to the constant that tells how readily two partners part at equilibrium. On to NMDRAVKLY, for which the Kd with HLA-A*01:01 [1] (source organism: Influenza A virus (A/Hong Kong/488/97(H5N1))) stood at 584 nM.

On to VFNGTSWFI, for which the Kd was no less than 78100 nM with HLA-A*01:01 [2] (setting [3]); no less than 77800 nM in the experiment with HLA-A*23:01 (setting [3]); no less than 107000 nM with HLA-A*24:02 (setting [3]); no less than 77900 nM with HLA-A*26:01 (setting [3]); no less than 45400 nM with HLA-A*29:02 (setting [3]); no less than 93800 nM with HLA-A*30:02 (setting [3]).

Consider KEMAETQHG, for which, in the experiment with HLA-B*44:02 (source organism: Dengue virus 4 Philippines/H241/1956), the dissociation constant Kd worked out at 143 nM.

As for YQPSSGCYI, the Kd in the experiment with HLA-A*23:01 (setting [4]) stood at 5410 nM; with HLA-A*24:02 (setting [4]) it was 7220 nM; with HLA-A*29:02 (setting [4]), 14500 nM.

In the case of QWFVERNMVI, the Kd worked out at 111 nM with HLA-A*23:01 (setting [5]) and 121 nM with HLA-A*24:02 (setting [5]).

For the sequence ICGGTIDAY, the Kd with HLA-A*01:01 [2] (setting [6]) is no less than 40200 nM; in the experiment with HLA-A*23:01 (setting [6]), no less than 77700 nM; with HLA-A*24:02 (setting [6]), no less than 77500 nM; with HLA-A*26:01 (setting [6]), no less than 77900 nM; with HLA-A*29:02 (setting [6]), no less than 21800 nM; with HLA-A*30:02 (setting [6]), 68.6 nM.

WQGDTGITY had a Kd with HLA-B*15:01 (source organism: Mycobacterium tuberculosis variant bovis) of 799 nM.

VFHLYLQYI: the dissociation constant (Kd) in the experiment with HLA-A*01:01 [2] (setting [3]) was 198 nM; with HLA-A*23:01 (setting [3]) it was 566 nM; with HLA-A*24:02 (setting [3]), 1090 nM; in the experiment with HLA-A*26:01 (setting [3]) it was 90.7 nM; with HLA-A*29:02 (setting [3]) it was no less than 71400 nM; with HLA-A*30:02 (setting [3]) it was no less than 125000 nM.

RSKAFSNCY returned a Kd with HLA-A*01:01 [1] (source organism: Influenza A virus (A/duck/Ontario/05/00 (H3N2))) of no less than 20000 nM.

Take NFGTFYEHI: the results for the Kd with HLA-A*23:01 (setting [7]), with HLA-A*24:02 (setting [7]) and with HLA-A*29:02 (setting [7]) were 451 nM, 1950 nM and 400 nM, respectively.

Turning to LCANEYTGNY, the equilibrium dissociation constant (Kd) was 445 nM with HLA-A*01:01 [2] (setting [3]); no less than 70000 nM in the experiment with HLA-A*23:01 (setting [3]); no less than 70300 nM with HLA-A*24:02 (setting [3]); no less than 29900 nM with HLA-A*26:01 (setting [3]); 98.3 nM with HLA-A*29:02 (setting [3]); 80.4 nM with HLA-A*30:02 (setting [3]).

With DYFESFSSFF, the Kd came out at 4.72 nM with HLA-A*23:01 (setting [8]), 11 nM in the experiment with HLA-A*24:02 (setting [8]) and 0.356 nM with HLA-A*29:02 (setting [8]).

For the sequence MWHVTRGAVL, the Kd with HLA-A*23:01 (setting [9]) was determined as 1460 nM; with HLA-A*24:02 (setting [9]), 1690 nM.

KMYEYVFKG: the values for the Kd with HLA-A*02:01 (setting [10]) and with HLA-A*69:01 (setting [10]) were 40.4 nM and no less than 20000 nM, respectively.

Turning to NLITCNDHY, in the experiment with HLA-A*01:01 [1] (setting [11]), the Kd was no less than 20000 nM.

LLFLPKAAY yielded a Kd in the experiment with HLA-B*15:01 (setting [11]) of 99.4 nM.

In the case of QFLGQQQPF, the Kd with HLA-A*01:01 [2] (setting [12]) is no less than 78100 nM; with HLA-A*23:01 (setting [12]), 7750 nM; with HLA-A*24:02 (setting [12]) it was 206 nM; with HLA-A*26:01 (setting [12]), no less than 77900 nM; with HLA-A*29:02 (setting [12]), 1470 nM; with HLA-A*30:02 (setting [12]), 831 nM.

In the case of KVRSNAAIG, in the experiment with HLA-A*30:01, the dissociation constant Kd came out at 13.6 nM.

Regarding VFRTSTPKVV, the Kd with HLA-A*01:01 [2] (setting [13]) was no less than 70400 nM; with HLA-A*23:01 (setting [13]) it was no less than 70000 nM; in the experiment with HLA-A*24:02 (setting [13]), no less than 70300 nM; in the experiment with HLA-A*26:01 (setting [13]), no less than 69700 nM; with HLA-A*29:02 (setting [13]), no less than 71400 nM; with HLA-A*30:02 (setting [13]) it was no less than 69700 nM.

As for FMRSISDDA, the Kd with HLA-A*02:01 (setting [10]) was 168 nM; with HLA-A*69:01 (setting [10]) it was no less than 20000 nM.

As to ALPPPPPPP, the Kd with HLA-A*02:01 (source organism: Homo sapiens) came to 12700 nM.

For the sequence LDEWSVATFY, the Kd in the experiment with HLA-A*01:01 [2] (setting [3]) is 2380 nM; in the experiment with HLA-A*23:01 (setting [3]), no less than 47900 nM; in the experiment with HLA-A*24:02 (setting [3]) it was no less than 32900 nM; with HLA-A*26:01 (setting [3]), no less than 21400 nM; in the experiment with HLA-A*29:02 (setting [3]) it was 95.2 nM; with HLA-A*30:02 (setting [3]), 495 nM.

For VVRVQRPAK, the Kd with HLA-A*03:01 was 126 nM; with HLA-A*30:01, 22.4 nM.

On to HEMYWISNG, for which the Kd with HLA-B*44:02 (setting [5]) was found to be 495 nM.

With RLSDPRFSQ, the Kd is no less than 20000 nM in the experiment with HLA-A*02:01 (setting [14]) and 121 nM in the experiment with HLA-A*69:01 (setting [14]).

As for RYMGEDGCWY, the values for the Kd with HLA-A*24:02 (setting [5]) and with HLA-A*30:02 (setting [5]) were 828 nM and no less than 69700 nM, respectively.

Take LFHAFFGAL: the figures for the Kd with HLA-A*23:01 (setting [7]), with HLA-A*24:02 (setting [7]) and in the experiment with HLA-A*29:02 (setting [7]) were 12500 nM, no less than 31900 nM and 3650 nM, respectively.

GMPNWCVSI: the Kd in the experiment with HLA-A*02:01 (setting [15]) was found to be 24.7 nM; in the experiment with HLA-A*69:01 (setting [15]), 3410 nM.
